This experiment deals with CD20 (human) (UniProt P11836). Kind of experiment: FACS on Ramos, Daudi, Raji and BJAB B lymphoma cells; range over four cell lines.

Mean fluorescence shift data for one substance are collected here from patent US20080044421A1.

UniProt P11836, sequence (P11836 whole entry): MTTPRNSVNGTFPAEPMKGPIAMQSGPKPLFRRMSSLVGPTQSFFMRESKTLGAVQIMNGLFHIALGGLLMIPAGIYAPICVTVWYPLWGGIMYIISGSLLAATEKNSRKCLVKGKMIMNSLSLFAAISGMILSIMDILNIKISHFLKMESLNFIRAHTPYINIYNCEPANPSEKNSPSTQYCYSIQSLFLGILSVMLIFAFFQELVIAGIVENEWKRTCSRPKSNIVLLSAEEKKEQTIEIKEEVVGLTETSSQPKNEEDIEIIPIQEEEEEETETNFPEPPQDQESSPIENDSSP

Take “RITUXAN (rituximab), monoclonal antibody specific for CD20”: the mean fluorescence shift fell in the range of 5 to 15 units.
